Data published in paper PMC8285061.

Experiments:
[1] = molecular target: T1, His6-Pal2 (Pal2-deltaN65) (Saccharomyces cerevisiae, UniProt P38809 65-366); experiment: EMSA
T1 sequence: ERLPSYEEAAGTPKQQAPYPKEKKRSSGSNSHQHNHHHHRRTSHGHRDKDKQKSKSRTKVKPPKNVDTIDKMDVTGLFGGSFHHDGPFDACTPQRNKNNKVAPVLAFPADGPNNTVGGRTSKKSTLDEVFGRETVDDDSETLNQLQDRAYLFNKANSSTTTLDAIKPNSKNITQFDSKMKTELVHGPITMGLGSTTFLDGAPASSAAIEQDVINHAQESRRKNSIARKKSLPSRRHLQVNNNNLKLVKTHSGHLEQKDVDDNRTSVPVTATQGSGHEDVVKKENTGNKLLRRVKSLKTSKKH

His6-Ypt1 = His6-Ypt1 (UniProt P01123 1-206); experiment: EMSA
His6-Pal1 (Pal1-deltaN) = molecular target: T2, His6-Pal1 (Pal1-deltaN) (Saccharomyces cerevisiae, UniProt Q05518 165-499); experiment: EMSA
T2 sequence: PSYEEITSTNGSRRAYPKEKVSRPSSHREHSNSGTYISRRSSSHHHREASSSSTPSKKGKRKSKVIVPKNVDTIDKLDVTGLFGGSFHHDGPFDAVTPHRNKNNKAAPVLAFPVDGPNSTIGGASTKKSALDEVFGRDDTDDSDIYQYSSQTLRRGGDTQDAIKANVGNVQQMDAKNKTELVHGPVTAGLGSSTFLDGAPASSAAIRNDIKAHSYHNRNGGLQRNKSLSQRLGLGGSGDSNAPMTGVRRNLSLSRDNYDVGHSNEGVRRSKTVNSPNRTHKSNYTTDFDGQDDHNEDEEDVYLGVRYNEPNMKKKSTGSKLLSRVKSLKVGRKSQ

[2] = molecular target: T1, His6-Pal2 (Pal2-deltaN65); experiment: competition

Sequence of His6-Ypt1 (P01123 whole entry): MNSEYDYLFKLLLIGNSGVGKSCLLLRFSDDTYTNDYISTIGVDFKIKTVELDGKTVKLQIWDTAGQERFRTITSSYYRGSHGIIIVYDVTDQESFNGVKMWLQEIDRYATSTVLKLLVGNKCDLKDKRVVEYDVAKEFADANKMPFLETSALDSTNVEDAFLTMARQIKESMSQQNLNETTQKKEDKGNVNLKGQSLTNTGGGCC

B1: Flc-3'-BE (HAC1 3'-UTR bipartite element) (structured_RNA)
RNA: CGUGAGGUUGGCGCGCCCUCCUACAAUUAUUUGUGGCGACUGGGCAGCGACACUGAACA
[1]
  binding result: binds
His6-Ypt1
  binding result: no binding
His6-Pal1 (Pal1-deltaN)
  binding result: binds

B2: unlabeled 3'-BE transcript (structured_RNA)
RNA: GGGCGUGAGGUUGGCGCGCCCUCCUACAAUUAUUUGUGGCGACUGGGCAGCGACACUGAACA
[2]
  binding result: binds
